Data taken from patent US20110046355A1 (F STAR BIOTECHNOLOGISCHE FORSCHUNGS UND ENTWICKLUNGSGES M B …, published 2011).
Positions count from the first letter of the chain named. Blank lines part the entries; values can stand above or below the binder they belong to.

Assays:
[1] = target: T1, Fcab wt (non-randomized Fc fragment) expressed on yeast (human, UniProt P0DOX5 218-449 = IgG part); test: FACS of yeast-displayed Fcab wt, CD64 staining
T1 construct: also called Fcab-wt expressing cells; not shown: N-terminal Aga2 display fusion (and CH1 in vector pYD1dXFc)

wild type Fcab = target: T2, wild type Fcab (human, UniProt P0DOX5 218-449 = IgG part, limits assumed); test: SPR, Fcab (10 ug/ml) captured on Protein A chip (3000 RU), human soluble CD64 at 5 ug/ml as analyte
T2 construct: also called Fcab wt; wtFcab
Method: Association with the neonatal Fc receptor (FcRn) was measured by adding 10 μg/ml Fcab to a Biacore CM5 chip coupled to 5000 response units (RU) of recombinant human FcRn at pH=6.0. The dissociation of Fcab from FcRn was tested at pH=7.4. […] Finally, human soluble CD64 at 5 μg/ml was added.

[2] = target: T3, Human soluble Her-2 (Bender Med Systems, Austria) (human, UniProt P04626 23-652, biotinylated (sulfo-LC-LC-biotin) when used for yeast FACS staining; unlabelled in ELISA and SPR); test: ELISA, human soluble Her-2 coated at 2 ug/ml, Fcab titrated, anti-Fc CH2-HRP detection
T3 construct: extracellular domain; given only as 'human soluble Her-2'; also called recombinant antigen Her2 (Bendermedsystems); Her2-biotin
Method: Human soluble Her-2 (Bender Med Systems, Austria) was coated to plastic at 2 μg/ml. After washing and blocking unspecific binding sites, increasing concentrations of Fcabs were added. To detect Her-2 bound Fcabs, anti-Fc CH2 domain specific monoclonal antibodies which were conjugated to horse radish peroxidase (Serotec) were added.

[3] = target: T4, Her-2 on Her-2 over-expressing human breast cancer cell lines SKBR3 and Calu-3 (human, UniProt P04626 23-1255); test: FACS on Her-2 over-expressing SKBR3 cells, anti-human Fc-PE detection
T4 construct: whole, on cells; also called SKBR3 cells; Calu-3 cells
Method: (§1) Antigen binding was also determined by SPR. Biacore CM5 chips were coated with different amounts of human soluble Her-2 followed by addition of increasing concentrations of Fcabs. The affinity (KD) of the Fcabs was calculated from the resulting binding curves after fitting using the software BiaEval. […] Antigen binding was also assessed by FACS using the Her-2 over-expressing human breast cancer cell lines SKBR3 and Calu-3. 1×10⁵ cells were incubated with increasing concentrations of Fcabs for 60 minutes on ice. Then, unbound antibodies were removed by centrifugation and washing. Cell bound Fcabs were detected by incubation with anti-human Fc specific antibodies conjugated to phycoerythrin (Sigma) for 60 minutes on ice. After washing the cells, the intensity of fluorescence on the cell surface was measured in a FACS Calibur instrument (Beckton Dickinson).

[4] = target: T4, Her-2 on Her-2 over-expressing human …; test: cell-based or functional assay
[5] = target: T3, Human soluble Her-2 (Bender Med …); test: assay not stated; told in the yeast display FACS selection and affinity maturation section (biotinylated Her2)
[6] = target: T3, Human soluble Her-2 (Bender Med …); test: SPR, Biacore CM5 chip coated with human soluble Her-2, Fcab as analyte, BiaEval fit
Method: as §1

binding result [1]: binds
binding result (wild type Fcab): binds
B1: human soluble CD64 (receptor, UniProt P12314 16-292, looked up)
chain: QVDTTKAVITLQPPWVSVFQEETVTLHCEVLHLPGSSSTQWFLNGTATQTSTPSYRITSASVNDSGEYRCQRGLSGRSDPIQLEIHRGWLLLQVSSRVFTEGEPLALRCHAWKDKLVYNVLYYRNGKAFKFFHWNSNLTILKTNISHNGTYHCSGMGKHRYTSAGISVTVKELFPAPVLNASVTSPLLEGNLVTLSCETKLLLQRPGLQLYFSFYMGSKTLRGRNTSSEYQILTARREDSGLYWCEAATEDGNVLKRSPELELQVLGLQLPTPVWFH
notes: extracellular domain; Printed as 'human soluble CD64'; also called human CD64 (R&D Systems)

EC50 [2]: 4.3 nM
B2: y-Her.C2.P4.2-9 (designed binder)
chain: EPKSCDKTHTCPPCPAPELLGGPSVFLFPPKPKDTLMISRTPEVTCVVVDVSHEDPEVKFNWYVDGVEVHNAKTKPREEQYNSTYRVVSVLTVLHQDWLNGKEYKCKVSNKALPAPIEKTISKAKGQPREPQVYTLPPSRDEYLHGDVSLTCLVKGFYPSDIAVEWESNGQPENNYKTTPPVLDSDGSFFLYSKLTVARYSPRMLRWAHGNVFSCSVMHEALHNHYTQKSLSLSPGK

EC50 [2]: 4.7 nM
EC50 [3]: 1.3 nM
B3: EF3-17 (designed binder)
chain: B2 chain with Y200H, P202R, R203T, L205W, A208G

EC50 [2]: 370 nM
B4: y-Her.C2.P4.2-4 (designed binder)
chain: B2 chain with L144S, H145D

EC50 [2]: 16.1 nM
EC50 [3]: 5.2 nM
B5: ABEFs0101 (designed binder)
chain: B2 chain with H145S, G146A, R203S, L205W, A208G
notes: If read literally (148-197) a Val would be doubled
ADCC: SKBR3 cell killing by NK cells (7-AAD/CFSE double positive cells), EC50 [4]: 1 nM

EC50 [2]: 93 nM
B6: y-Her.C2.P4.2-19 (designed binder)
chain: B2 chain with L144R, H145S, D147E

EC50 [2]: 463 nM
B7: y-Her.C2.P4.2-3 (designed binder)
chain: B2 chain with L144A, H145S, G146N, D147T

EC50 [5]: 18.9 nM
EC50 [2]: 4.8 nM
Kd [6]: 8.6 nM
EC50 [3]: 10.3 nM
B8: H10-03-6 (designed binder)
chain: B2 chain with H145Y, A198P, Y200H, P202A, L205W
notes: also called H10-03-6 clone
ADCC: SKBR3 cell killing by NK cells (7-AAD/CFSE double positive cells), EC50 [4]: 1.1 nM

EC50 [2]: 263 nM
Kd [6]: 7.5 nM
B9: H561G3M1G4 (designed binder)
chain: EPKSCDKTHTCPPCPAPELLGGPSVFLFPPKPKDTLMISRTPEVTCVVVDVSHEDPEVKFNWYVDGVEVHNAKTKPREEQYNSTYRVVSVLTVLHQDWLNGKEYKCKVSNKALPAPIEKTISKAKGQPREPQVYTLPPSRDEFFTYWVSLTCLVKGFYPSDIAVEWESNGQPENNYKTTPPVLDSDGSFFLYSKLTVDRRRWTAGNVFSCSVMHEALHNHYTQKSLSLSPGK
